The labels stand for the following.
B1: CP-870,893 (antibody, human IgG2, kappa, V domains shown)
VH: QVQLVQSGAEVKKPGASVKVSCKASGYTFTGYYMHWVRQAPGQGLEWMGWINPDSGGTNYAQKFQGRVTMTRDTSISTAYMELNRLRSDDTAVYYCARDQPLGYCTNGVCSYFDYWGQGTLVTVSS
VL: DIQMTQSPSSVSASVGDRVTITCRASQGIYSWLAWYQQKPGKAPNLLIYTASTLQSGVPSRFSGSGSGTDFTLTISSLQPEDFATYYCQQANIFPLTFGGGTKVEIKR
B2: AD164.76.3 (antibody, V domains shown)
VH: DVQLQESGPGLVKPSQSLSLTCSVTGYSITSNYYWNWIRQFPGNKLEWMGYIRYDGSNNYNPSLKNRISITRDTSKNQFFLRLNSVTTEDTATYYCTRLDYWGQGTTLTVSS
VL: DAVMTQTPLSLPVSLGDQASISCRSSQSLENSNGNTFLNWFLQKPGQSPQLLIYRISNRFSGVPDRFSGSGSGTDFTLKISRVEAEDLGVYFCLQVTHVPFTFGSGTKLEIK
notes: mouse hybridoma monoclonal; also called muAb10
B3: AD164.14.6 (antibody, V domains shown)
VH: B2 VH with R82K, T97A
VL: B2 VL with S32T, I56V
notes: mouse hybridoma monoclonal; also called muAb9
B4: AD165.1.2 (antibody, V domains shown)
VH: DVQLQESGPGLVEPSQSLFLTCSVTGYSITTNYNWNWIRQFPGNKLEWMGYIRHDGTNNYNPSLKNRISIIRDTPKNQFFLKLNSVTTEDTAIYFCTRLDYWGQGTSVTVSS
VL: B2 VL with N33Y, K44R, I56V, S61C, V90I, F101Y, S105G
notes: mouse hybridoma monoclonal; also called muAb5
B5: AD163.9.3 (antibody, V domains shown)
VH: QVQLQQPGAELVKPGASVKMSCKASGYTFTSYWITWVKQRPGQGLEWIGEINPGSGSTNYNEKFKSKATLTVDTSSSTAYMQLSSLTSEDSAVYYCARNRGTGDYWGQGTTLTVSS
VL: DVVMTQTPLSLPVSLGDQASISCRSSQSLVHSYGNTYLHWYLQKPGQSPKFLIYKVSNRISGVPDRLSGSGSGTDFTLKISRVEPEDLGVYFCSQSTHVPYTFGGGTKLEIK
notes: mouse hybridoma monoclonal; also called muAb1
B6: AD166.4.4 (antibody, V domains shown)
VH: QVQLQQSGAELMKPGASAKLSCKATGYTFTGYWIQWVKQRPGHGLEWIGEILPGGDHTKYNEKFRGKATFTSDTSSNTVYMQLSSLTTEDSAIYYCARVGGDYWGQGTTLTVSS
VL: B5 VL with H31N, Y33N, G34E, F51L, S57F, I60Y, L67F, P85A, S94F, Y101W
notes: mouse hybridoma monoclonal; also called muAb2
B7: AD163.162.1 (antibody, V domains shown)
VH: QVQLQQPGAELVRPGSSVKLSCKASGYTFTSYWMHWVKQRPIQGLEWIGNIDPSNGETHYNQKFKDKATLTVDKSSSTAYMQLSSLTSEDSAVYYCARERIYYSGSTYDGYFDVWGTGTTVTVSS
VL: QIVLTQSPAIMSASPGEKVTMTCSASSSLSYMHWYQQKSGTSPKRWIYDTSKLASGVPARFSGSGSGTSYSLTISSMEAEDAATYYCQQWSSNPWTFGGGTKLEIK
notes: mouse hybridoma monoclonal; also called muAb6
B8: AD163.27.12 (antibody, V domains shown)
VH: B7 VH
VL: B7 VL with A79G, A82G
notes: mouse hybridoma monoclonal; same VH as muAb6; also called muAb7
B9: AD163.7.2 (antibody, V domains shown)
VH: QVQLQQSGPELVKSGASVKISCKASGYTFTDYYINWVKQRPGQGLEWIGWIFPGSGSVYCNEQFKGQATLTVDRSSSTAYMLLSSLTSEDSAVYFCASSLGKFAYWGQGTLVTVSA
VL: DIVMTQSQKFMSTTVGDRVSITCKASQSVVTAVAWYQQKPGQSPKLLIYSASNRYTGVPDRFTGSGSGTDFALTIRTMQSEDLADYFCQQYSSYPYTFGGGTKLEIK
notes: mouse hybridoma monoclonal; also called muAb8
B10: AD163.10.7 (antibody, V domains shown)
VH: LVQPGGSLSLSCAASGFTFSDYYMSWVRQPPGKALEWLGFIRNKANGYTTEFSASVKGRFTISRDNSQSILYLQMNALRAEDSATYYCARYGGLRQGWYFDVWGTGTTVTVSS
VL: DIQMTQTTSSLSASLGDRVTISCRASQDIRNYLNWYQQKPDGTVKLLIYYTSRLHSGVPSRFSGSGSGTDYSLTISNLEQEDIATYFCQQGKTLPWTFGGGSKLEMK
notes: mouse hybridoma monoclonal; also called muAb4
B11: AD175.14.11 (antibody, V domains shown)
VH: EVQLQQSGPELVKPGASVKISCKASGYTFTDYYMNWVKQSHGKSLEWIGDINPNNGGTSYNQKFKGKATLTVDKSSSTAYMELRSLTSEDSAVYYCARRGGLGRGTYALDYWGQGTSVTVSS
VL: B10 VL with R30S, L46P, S56L, K92N, W96L, G100A, S102T, M106L
notes: mouse hybridoma monoclonal; also called muAb3
B12: Humanized muAb6 #1 (antibody, V domains shown)
VH: EVQLVQSGAEVKKPGSSVKVSCKASGYTFTSYWMHWVRQAPGQGLEWIGNIDPSNGETHYNQKFKDRATLTVDKSTSTAYMELSSLRSEDTAVYYCARERIYYSGSTYDGYFDVWGQGTTVTVSS
VL: DIQLTQSPSFLSASVGDRVTITCSASSSLSYMHWYQQKPGKSPKRWIYDTSKLASGVPSRFSGSGSGTEYTLTISSLQPEDFATYYCQQWSSNPWTFGGGTKVEIK
B13: Humanized muAb6 #2 (antibody, V domains shown)
VH: B12 VH with A68V, L70I
VL: B12 VL
B14: Humanized muAb6 #3 (antibody, V domains shown)
VH: B12 VH with N61A, K65Q, D66G, A68V, L70I
VL: B12 VL
B15: Humanized muAb9 #1 (antibody, V domains shown)
VH: EVQLQESGPGLVKPSETLSLTCTVSGYSITSNYYWNWIRQPPGKGLEWMGYIRYDGSNNYNPSLKNRITISRDTSKNQFSLKLSSVTAADTAVYYCARLDYWGQGTTVTVSS
VL: B2 VL with P12S, S14T, L15P, D17Q, Q18P, S32T, I56V, L88V, S105Q
B16: Humanized muAb9 #6 (antibody, V domains shown)
VH: B15 VH with T30S, N66S, I68V
VL: DAVMTQTPLSLSVTPGQPASISCRSSQSLENTNGNTFLNWYLQKPGQSPQLLIYRVSNRFSGVPDRFSGSGSGTDFTLKISRVEAEDVGVYYCLQVTHVPFTFGQGTKLEIK
B17: Humanized muAb9 #4 (antibody, V domains shown)
VH: B15 VH
VL: B16 VL
B18: Humanized muAb9 #3 (antibody, V domains shown)
VH: B15 VH with T30S, N66S, I68V
VL: B16 VL with Y41F, Y92F
B19: Humanized muAb9 #2 (antibody, V domains shown)
VH: B15 VH with I68V
VL: B16 VL with Y41F, Y92F

Changes are numbered by the printed parent chain.
Throughout, for moDC activation (IL-12p70, pg/mL): test concentration or dose not given here.

T2 sequence (P25942 21-193 limits assumed): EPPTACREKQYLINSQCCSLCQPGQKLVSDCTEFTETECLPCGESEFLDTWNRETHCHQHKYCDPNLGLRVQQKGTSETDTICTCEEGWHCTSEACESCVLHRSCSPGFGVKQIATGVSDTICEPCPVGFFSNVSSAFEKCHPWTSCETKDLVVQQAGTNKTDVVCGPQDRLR

In the first assay the target is T1, human CD40 on cells (human, UniProt P25942 21-277). Kind of assay: cell-based or functional assay.
T1 sequence (P25942 21-277 limits assumed): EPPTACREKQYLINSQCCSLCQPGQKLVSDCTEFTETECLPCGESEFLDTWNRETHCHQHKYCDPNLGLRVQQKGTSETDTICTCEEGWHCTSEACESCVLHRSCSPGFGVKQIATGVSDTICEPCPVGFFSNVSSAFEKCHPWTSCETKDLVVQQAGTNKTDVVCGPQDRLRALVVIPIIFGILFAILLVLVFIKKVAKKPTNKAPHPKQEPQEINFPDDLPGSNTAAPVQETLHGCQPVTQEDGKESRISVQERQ
With B1, the “NFκB activity EC50; HEK293 blue CD40 reporter cells co-cultured with CHO cells expressing CD16F” value worked out at 0.03 nM, the “NFκB activity EC50; HEK293 blue CD40 reporter cells co-cultured with CHO cells expressing CD16V” value is 0.02 nM, the “NFκB activity EC50; HEK293 blue CD40 reporter cells co-cultured with CHO cells expressing CD32a” value was 0.02 nM and the “NFκB activity EC50; HEK293 blue CD40 reporter cells co-cultured with CHO cells expressing CD32b” value came to 0.02 nM. The “NFκB activity EC50; HEK293 blue CD40 reporter cells co-cultured with CHO cells expressing CD64” value was 0.02 nM and the “NFκB activity EC50; HEK293 blue CD40 reporter cells co-cultured with FcγR negative CHO cells” value is 0.03 nM.

Another assay addresses T1, human CD40 on cells. The assay can be described thus: cell-based or functional assay. The source holds these as a separate data set.
Turning to B2, the “moDC activation (IL-12p70, pg/mL)” value is 770 pg/mL.

As for B3, the “moDC activation (IL-12p70, pg/mL)” value worked out at 878 pg/mL.

With B4, the “moDC activation (IL-12p70, pg/mL)” value is 720 pg/mL.

On to B5, for which the “moDC activation (IL-12p70, pg/mL)” value is 2220 pg/mL.

For the molecule B6, the “moDC activation (IL-12p70, pg/mL)” value was determined as 0 pg/mL.

As to B7, the “moDC activation (IL-12p70, pg/mL)” value is 2160 pg/mL.

B8: the “moDC activation (IL-12p70, pg/mL)” value stood at 1510 pg/mL.

Consider B9, for which the “moDC activation (IL-12p70, pg/mL)” value worked out at 905 pg/mL.

As to B10, the “moDC activation (IL-12p70, pg/mL)” value came out at 1320 pg/mL.

Regarding B11, the “moDC activation (IL-12p70, pg/mL)” value stood at 0 pg/mL.

A further assay has as its target T1, human CD40 on cells. The assay can be described thus: cell-based or functional assay. The source holds these as a separate data set.
Regarding B12, the “Maximal activation (OD655) in HEK293 blue CD40 NFκB reporter cells” value (“Maximal activation (OD655)” below) amounted to 0.26 OD655 and the “NFκB activation EC50 (SEAP, OD655) in HEK293 blue CD40 NFκB reporter cells” value (“NFκB activation EC50 (SEAP, OD655)” for short) was 1.09 µg/mL.

Take B13: the “Maximal activation (OD655)” value turned out to be 0.2 OD655 and the “NFκB activation EC50 (SEAP, OD655)” value stood at 1.21 µg/mL.

In the case of B14, the “Maximal activation (OD655)” value is 0.32 OD655 and the “NFκB activation EC50 (SEAP, OD655)” value amounted to 4.31 µg/mL.

Turning to B15, the “Maximal activation (OD655)” value turned out to be 0.26 OD655 and the “NFκB activation EC50 (SEAP, OD655)” value is 0.19 µg/mL.

Regarding B16, the “Maximal activation (OD655)” value is 0.54 OD655 and the “NFκB activation EC50 (SEAP, OD655)” value worked out at 5.95 µg/mL.

As to B17, the “Maximal activation (OD655)” value came out at 0.61 OD655 and the “NFκB activation EC50 (SEAP, OD655)” value was found to be 5.55 µg/mL.

As for B18, the “Maximal activation (OD655)” value was 0.27 OD655 and the “NFκB activation EC50 (SEAP, OD655)” value was 0.18 µg/mL.

In the case of B19, the “Maximal activation (OD655)” value was 0.27 OD655 and the “NFκB activation EC50 (SEAP, OD655)” value turned out to be 0.29 µg/mL.

A further assay has as its target T2, CD40-human Fc (huFc) fusion protein (Creative BioMart) (human, UniProt P25942 21-193).
T2 construct: bought; also called CD40-huFc; not shown: human Fc
The assay can be described thus: ELISA: CD40-huFc mixed with antibody, binding to plate-bound HA-tagged CD40L. Note: test concentration or dose not given here. The source says:
After development with TMB (3, 3′, 5, 5′-tetramethylbenzidine) substrate, the plates were read at OD₄₅₀.
Background: An ELISA detects its analyte on a solid surface through an enzyme-linked reagent.
Consider B2, for which the “OD450 Ratio” value is 2.63 ratio to isotype control and the “OD450 with anti-CD40 antibody” value amounted to 2.11 OD450.

As to B3, the “OD450 Ratio” value is 2.35 ratio to isotype control and the “OD450 with anti-CD40 antibody” value amounted to 1.88 OD450.

Consider B4, for which the “OD450 Ratio” value was 1.24 ratio to isotype control and the “OD450 with anti-CD40 antibody” value came to 0.989 OD450.

For the molecule B5, the “OD450 Ratio” value is 2.22 ratio to isotype control and the “OD450 with anti-CD40 antibody” value came to 1.78 OD450.

Consider B6, for which the “OD450 Ratio” value was 1.28 ratio to isotype control and the “OD450 with anti-CD40 antibody” value came to 1.02 OD450.

On to B7, for which the “OD450 Ratio” value was 0.57 ratio to isotype control and the “OD450 with anti-CD40 antibody” value was found to be 0.455 OD450.

B8: the “OD450 Ratio” value is 0.41 ratio to isotype control and the “OD450 with anti-CD40 antibody” value turned out to be 0.328 OD450.

For B9, the “OD450 Ratio” value was 0.08 ratio to isotype control and the “OD450 with anti-CD40 antibody” value came to 0.066 OD450.

Take B10: the “OD450 Ratio” value was 1.68 ratio to isotype control and the “OD450 with anti-CD40 antibody” value turned out to be 1.34 OD450.

With B11, the “OD450 Ratio” value was 0.09 ratio to isotype control and the “OD450 with anti-CD40 antibody” value came out at 0.068 OD450.

Values taken from US20210277137A1 (AbbVie / Abbott, published 2021).
